{"source": "paper PMC7946651", "about": "“The Recombinant Luciferase of the Fungus Neonothopanus nambi: Obtaining and Properties” (Doklady. Biochemistry and Biophysics, 2021)", "proteins": {"B1": {"name": "recombinant N. nambi luciferase (nnLuz) (Neonothopanus nambi) (protein)", "chain": "MRINISLSSLFERLSKLSSRSIAITCGVVLASAIAFPIIRRDYQTFLEVGPSYAPQNFRGYIIVCVLSLFRQEQKGLAIYDRLPEKRRWLADLPFREGTRPSITSHIIQRQRTQLVDQEFATRELIDKVIPRVQARHTDKTFLSTSKFEFHAKAIFLLPSIPINDPLNIPSHDTVRRTKREIAHMHDYHDCTLHLALAAQDGKEVLKKGWGQRHPLAGPGVPGPPTEWTFLYAPRNEEEARVVEMIVEASIGYMTNDPAGKIVENAK", "notes": "expressed in Pichia pastoris GS115; membrane protein solubilized and purified in DDM"}}, "substrate": "O=c1oc(/C=C/c2ccc(O)c(O)c2)cc(O)c1O", "test": "bioluminescence, initial light intensity, Michaelis-Menten fit", "type": "biochemical, Neonothopanus nambi", "details": "50 nM enzyme, 200 mM Na-phosphate pH 8.0, 500 mM Na2SO4, 0.1% DDM, room temperature, luciferin 2 nM to 50 μM"}
{"protein": "B1", "values": [{"measurement": "Km", "result": "1.09 ± 0.06", "unit": "µM"}]}
